Results: patent US20220362348A1, “LACTOFERRIN, DERIVED PEPTIDE THEREOF AND METHOD THEREOF FOR INHIBITING AND/OR ALLEVIATING LIPID SYNTHESIS” (RENORIGIN INNOVATION INSTITUTE CO., LTD., priority 2021, published 2022)

System: Human sebocytes
Experiment: Neutral fat detection (Nile red staining, fluorescence intensity) in linoleic acid-induced sebocytes
Format: cell-based
Conditions: for fluorescence intensity (lipid content, Nile red): FIG. 1 D, two days, negative control about 1.0
Description: Human sebocytes (Cat. No. 36079-01, Celprogen, Torrance, Calif., USA) were cultured in Dulbecco's Modified Eagle Medium (DMEM): Nutrient Mixture F-12 (DMEM/F12) purchased from Thermo Fisher Scientific Limited (Barrington, Ill., USA), 10% fetal bovine serum (FBS) purchased from Gibco, Grand Island, N.Y., USA and penicillin/streptomycin (100 IU/50 […]), incubated at 37° C. in the 5% CO2 atmosphere.
Human sebocytes were implanted in 24- or 96-well plates. After 24 hours of culture, the cells were divided into a negative control group, a positive control group and an experimental group. […] The treated human sebocytes were cultured for two days. Human sebocytes were fixed with 4% formaldehyde at room temperature. After 60 minutes of fixation, the cells were washed with PBS and stained with Nile Red solution (1 μg/ml in PBS) at 37° C. for 15 minutes. Next, the cells were washed and observed under a fluorescent microscope. Fluorescence intensity is measured with fluorometer Spectra Max i3.

B1: lactoferrin (protein)
chain: APRKNVRWCTISQPEWFKCRRWQWRMKKLGAPSITCVRRAFALECIRAIAEKKADAVTLDGGMVFEAGRDPYKLRPVAAEIYGTKESPQTHYYAVAVVKKGSNFQLDQLQGRKSCHTGLGRSAGWIIPMGILRPYLSWTESLEPLQGAVAKFFSASCVPCIDRQAYPNLCQLCKGEGENQCACSSREPYFGYSGAFKCLQDGAGDVAFVKETTVFENLPEKADRDQYELLCLNNSRAPVDAFKECHLAQVPSHAVVARSVDGKEDLIWKLLSKAQEKFGKNKSRSFQLFGSPPGQRDLLFKDSALGFLRIPSKVDSALYLGSRYLTTLKNLRETAEEVKARYTRVVWCAVGPEEQKKCQQWSQQSGQNVTCATASTTDDCIVLVLKGEADALNLDGGYIYTAGKCGLVPVLAENRKSSKHSSLDCVLRPTEGYLAVAVVKKANEGLTWNSLKDKKSCHTAVDRTAGWNIPMGLIVNQTGSCAFDEFFSQSCAPGADPKSRLCALCAGDDQGLDKCVPNSKEKYYGYTGAFRCLAEDVGDVAFVKNDTVWENTNGESTADWAKNLNREDFRLLCLDGTRKPVTEAQSCHLAVAPNHAVVSRSDRAAHVKQVLLHQQALFGKNGKNCPDKFCLFKSETKNLLFNDNTECLAKLGGRPTYEEYLGTEYVTAIANLKKCSTSPLLEACAFLTR
modifications: bovine lactoferrin
lipid content reduced compared with positive control group (LA) (FIG. 1, 0.1 mM LA + 100 to 400 μg/mL lactoferrin): 25%
fluorescence intensity (lipid content, Nile red) (0.1 mM LA + 100 μg/mL lactoferrin): about 1.5
fluorescence intensity (lipid content, Nile red) (0.1 mM LA + 200 μg/mL lactoferrin): about 1.5
fluorescence intensity (lipid content, Nile red) (0.1 mM LA + 400 μg/mL lactoferrin): about 1.5
concentration dependence of inhibition of LA-induced lipid content (FIGS. 1-4, lactoferrin 100-400 μg/mL, peptides 25-100 μg/mL): dose-dependent manner
